One molecule from PMC9972587, “SIRT2-PFKP interaction dysregulates phagocytosis in macrophages with acute ethanol-exposure” (Frontiers in Immunology, 2022) can be followed below.

The assay concerns the target T1, Human recombinant PFKP protein (His and GST tag) (human, UniProt Q01813 1-784).
T1 construct: Phosphofructokinase, platelet isoform (PFKP), human, recombinant; also called human PFKP protein; source: bought: Sino Biological (CAT# 15003-H20B)
T1 sequence (looked up): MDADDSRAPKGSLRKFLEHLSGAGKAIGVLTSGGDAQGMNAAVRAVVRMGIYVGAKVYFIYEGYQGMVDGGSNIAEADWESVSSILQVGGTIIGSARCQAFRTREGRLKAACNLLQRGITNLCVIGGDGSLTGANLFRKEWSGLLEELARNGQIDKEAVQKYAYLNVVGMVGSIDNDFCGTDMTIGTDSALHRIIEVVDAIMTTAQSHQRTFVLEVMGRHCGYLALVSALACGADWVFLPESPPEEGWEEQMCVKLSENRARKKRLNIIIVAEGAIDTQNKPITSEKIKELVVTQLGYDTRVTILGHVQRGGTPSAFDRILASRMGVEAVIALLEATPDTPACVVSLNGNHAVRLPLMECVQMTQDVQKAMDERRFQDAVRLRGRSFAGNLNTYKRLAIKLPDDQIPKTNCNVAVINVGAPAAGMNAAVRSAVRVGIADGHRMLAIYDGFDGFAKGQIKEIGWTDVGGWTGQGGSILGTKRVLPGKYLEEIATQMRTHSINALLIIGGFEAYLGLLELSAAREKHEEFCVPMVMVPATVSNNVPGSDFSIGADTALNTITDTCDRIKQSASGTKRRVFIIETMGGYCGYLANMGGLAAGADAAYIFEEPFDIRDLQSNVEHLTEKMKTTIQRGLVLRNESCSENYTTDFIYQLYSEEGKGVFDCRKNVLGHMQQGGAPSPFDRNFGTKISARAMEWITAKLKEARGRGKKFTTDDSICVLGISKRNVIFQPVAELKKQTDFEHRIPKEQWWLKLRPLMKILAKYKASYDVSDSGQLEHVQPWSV
Kind of assay: SPR; Biacore S200; human SIRT2 immobilised on CM5 chip by amine coupling (10 mM sodium acetate pH 4.0 with 20 uM NAD+); PFKP injected at 15.62-1000 nM, contact time 120 s, 15 uL/minute; running buffer HBS-P+ pH 7.4; steady state equilibrium binding model. As to conditions: both partners purified. In general terms: Surface plasmon resonance follows binding to a sensor surface in real time, without labels.

For orientation: Kd means the constant that tells how readily two partners part at equilibrium.

B1: Recombinant human SIRT2 protein (enzyme, UniProt Q8IXJ6 1-389, looked up)
chain: MAEPDPSHPLETQAGKVQEAQDSDSDSEGGAAGGEADMDFLRNLFSQTLSLGSQKERLLDELTLEGVARYMQSERCRRVICLVGAGISTSAGIPDFRSPSTGLYDNLEKYHLPYPEAIFEISYFKKHPEPFFALAKELYPGQFKPTICHYFMRLLKDKGLLLRCYTQNIDTLERIAGLEQEDLVEAHGTFYTSHCVSASCRHEYPLSWMKEKIFSEVTPKCEDCQSLVKPDIVFFGESLPARFFSCMQSDFLKVDLLLVMGTSLQVQPFASLISKAPLSTPRLLINKEKAGQSDPFLGMIMGLGGGMDFDSKKAYRDVAWLGECDQGCLALAELLGWKKELEDLVRREHASIDAQSGAGVPNPSTSASPKKSPPPAKDEARTTEREKPQ
notes: Sirtuin 2 (SIRT2), human, recombinant; also called human SIRT2 ligand; source: bought: Sigma-Aldrich (CAT# SRP0116)
In the case of B1, the Kd was 100 nM.
